Assay results from publication doi:10.1101/776187.

Experiments:
[1] = molecular target: dynactin (bovine (purified from bovine brain))
[2] = molecular target: human cytoplasmic dynein (recombinant complex of DHC, DIC, DLIC, Tctex, Robl and LC8) (human) (UniProt Q14204)

“Drosophila BicD-coiled-coil domain 1 (truncated N-terminal fragment of Dm BicD) (domain or fragment)” showed a processive run length of DDB^CC1 on microtubules, single molecule TIRF [1] of 2.8 µm, a speed of DDB^CC1 on microtubules, single molecule TIRF [1] of 0.41 µm/s and a processive run length of DDB^CC1 on microtubules, single molecule TIRF [2] of 2.8 µm. The speed of DDB^CC1 on microtubules, single molecule TIRF [2] was 0.41 µm/s.
